These results are taken from doi:10.1101/2023.10.09.561567 (bioRxiv, 2023).

One may read the Kd as the free concentration of one partner at which half of the binding sites on the other are occupied at equilibrium, for simple one-to-one binding. Read a high Kd as lower affinity. As usually defined, the IC50 is the midpoint of a concentration-inhibition curve.

Experiment [1] addresses HpARI1 (Heligmosomoides polygyrus bakeri). Put plainly: SPR. (In general: In SPR one partner is held on a chip, and binding of the other changes the refractive index at the surface.)
Experiment [2] has as its target HpARI2 (Heligmosomoides polygyrus bakeri). In words: SPR.
Experiment [3] has as its target HpARI3 (Heligmosomoides polygyrus bakeri). Put plainly: SPR.
The target in experiment [4] is IL-33 released from CMT-64 cells (mouse (endogenous in CMT-64)) (UniProt Q8BVZ5). In words: ELISA. A general note: ELISA stands for enzyme-linked immunosorbent assay.
The target in experiment [5] is T1, IL-33 released from CMT-64 cells (mouse (endogenous in CMT-64), UniProt Q8BVZ5 1-266).
T1 sequence (looked up): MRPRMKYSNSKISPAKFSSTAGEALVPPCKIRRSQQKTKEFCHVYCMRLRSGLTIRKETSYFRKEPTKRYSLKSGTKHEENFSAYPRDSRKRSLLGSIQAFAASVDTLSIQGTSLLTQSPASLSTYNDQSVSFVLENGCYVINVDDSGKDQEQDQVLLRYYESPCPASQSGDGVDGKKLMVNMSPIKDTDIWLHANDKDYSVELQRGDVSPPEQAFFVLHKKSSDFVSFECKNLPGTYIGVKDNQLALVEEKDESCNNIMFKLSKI
Put plainly: ELISA.

Consider “mouse IL-33 (purified) (from UniProt Q8BVZ5 1-266) (ligand)”, for which the Kd is 40 pM in experiment [1], 40 pM in experiment [2] and 400 pM in experiment [3].
Turning to HpARI2 (natural protein), the IC50 in experiment [4] stood at 800 pM.
With HpARI1 (natural protein), in experiment [4], the IC50 turned out to be 800 pM.

B1: HpARI3 (natural protein, Heligmosomoides polygyrus bakeri, UniProt A0A183GRJ4 1-248, looked up)
chain: SLGCKFTDVEKDKGYTGMLVGGKRRESAANGQKVELVCGRGNHNYTCKSGILTEESYRQGRCGCEGILQMLLDKPKDSPMYDSVTYDPTPNTPTTVGKDGIWNGVDYRNGSTVRPYCDTGPIINGSPKAVCVSGKWVPKLGDCPKMCSISSLKENGKFLNVTATTTGDELNPRPREQTLIPIVRKVDKDKVQHGVKVVALCKAKYSTTAAENVQKFECDNGKWKPKPVPCS
modifications: chemically biotinylated with EZ-Link Sulfo-NHS-Biotin (for SPR only)
On to B1, for which, in experiment [5], the IC50 is about 6000 pM.
